Key:
[1] = biological target: cell surface-bound human GPC3 on GPC3+ HepG2 cells (human) (UniProt P51654); assay: FACS, control mIgG1 on GPC3-positive HepG2 cells, PE anti-mouse IgG (H and L)
[2] = biological target: cell surface-bound human GPC3 on GPC3+ HepG2 cells (human) (UniProt P51654); assay: FACS, control (helper) phage on GPC3+ HepG2 cells, anti-M13 then PE anti-mouse IgG; same sample in FIGS. 3A-3D
[3] = biological target: cell surface-bound human GPC3 on GPC3+ HepG2 cells (human) (UniProt P51654); assay: FACS, control (helper) phage on GPC3+ HepG2 cells, anti-M13 then PE anti-mouse IgG; same sample in FIGS. 2A-2E
[4] = biological target: cell surface-bound human GPC3 on GPC3+ HepG2 cells (human) (UniProt P51654); assay: FACS, helper phage on GPC3+ HepG2 cells, mouse anti-M13 then PE anti-mouse IgG; same sample shown in all panels of FIGS. 1A-1G

**Q.** For control mIgG1 (antibody), which Median : PE-A [1] is on record?
**A.** 93.8

**Q.** Which results are given for Negative control (helper phage)?
**A.** Median : PE-A [2]: 106; Median : PE-A [3]: 556; Median : PE-A [4]: 99.4

Source: patent US20230048360A1
